Experimental data from patent publication US20160230173A1.

T1: Glucocorticoid receptor (NR3C1) with the LLID motif mutated to AAAA by site-directed mutagenesis of Myc-DDK tagged NR3C1
T1 chain: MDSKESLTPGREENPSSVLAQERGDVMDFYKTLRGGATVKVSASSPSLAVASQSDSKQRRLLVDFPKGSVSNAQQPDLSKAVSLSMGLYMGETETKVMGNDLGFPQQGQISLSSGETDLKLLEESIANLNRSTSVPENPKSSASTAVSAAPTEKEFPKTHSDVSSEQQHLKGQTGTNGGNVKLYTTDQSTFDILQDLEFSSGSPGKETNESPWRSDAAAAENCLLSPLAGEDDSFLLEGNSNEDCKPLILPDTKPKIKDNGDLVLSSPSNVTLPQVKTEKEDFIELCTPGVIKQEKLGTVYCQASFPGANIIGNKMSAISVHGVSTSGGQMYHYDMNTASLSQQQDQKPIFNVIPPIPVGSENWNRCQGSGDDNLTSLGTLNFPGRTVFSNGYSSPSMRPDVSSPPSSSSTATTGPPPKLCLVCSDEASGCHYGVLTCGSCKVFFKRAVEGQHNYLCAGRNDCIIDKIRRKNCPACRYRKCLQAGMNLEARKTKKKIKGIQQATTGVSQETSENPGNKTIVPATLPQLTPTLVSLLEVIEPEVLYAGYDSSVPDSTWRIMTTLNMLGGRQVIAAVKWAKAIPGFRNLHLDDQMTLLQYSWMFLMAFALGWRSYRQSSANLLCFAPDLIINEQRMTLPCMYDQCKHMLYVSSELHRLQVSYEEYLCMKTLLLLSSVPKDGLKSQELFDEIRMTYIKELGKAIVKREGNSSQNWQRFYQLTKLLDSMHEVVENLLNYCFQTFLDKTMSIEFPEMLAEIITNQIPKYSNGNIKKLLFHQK


Experiments:
[1] = target: Endogenous glucocorticoid receptor (90-kDa GR) of NALM-6 human leukemia cells (human) (UniProt P04150); experiment: cell-based or functional assay
[2] = target: Doubly mutated GR (double mutagenized GR, both CASP1 cleavage sites LLID and IKQE replaced by alanines), expressed from pLX304 lentivirus (human) (UniProt P04150); experiment: cell-based or functional assay
[3] = target: T1, Glucocorticoid receptor (NR3C1) with …

Molecule | GR protein level in CASP1-overexpressing Nalm6 cells 24 hours after activation of CASP1 (western blot) [1] | level of 90-kDa GR after activation of CASP1 (LPS/ATP) in shNT CASP1-overexpressing NALM-6 cells (western blot, normalized for HSP90) [1] | fold decrease in prednisolone LC50 (MTT assay) in CASP1-overexpressing NALM-6 cells expressing GR without CASP1 cleavage sites [2] | cleavage of mutated GR in CASP1 enzymatic assay (western blot) [3]
Full-length CASP1 (Origene catalog # RC218364; GenBank Accession No. NM_033292) overexpressed in Nalm6 leukemia cells by lentivirus (from UniProt P29466 1-404) (enzyme) | 35 % reduction | 2 fold lower | 9.4 fold | –
Recombinant human CASP1 (Enzo Life Sciences CASP1 assay kit for drug discovery, catalog number BML-AK701-0001) (protein) NPAMPTSSGSEGNVKLCSLEEAQRIWKQKSAEIYPIMDKSSRTRLALIICNEEFDSIPRRTGAEVDITGMTMLLQNLGYSVDVKKNLTASDMTTELEAFAHRPEHKTSDSTFLVFMSHGIREGICGKKHSEQVPDILQLNAIFNMLNTKNCPSLKDKPKVIIIQACRGDSPGVVWFKDSVGVSGNLSLPTTEEFEDDAIKKAHIEKDFIAFCSSTPDNVSWRHPTMGSVFIGRLIEHMQEYACSCDVEEIFRKVRFSFEQPDGRAQMPTTERVTLTRCFYLFPGH | – | – | – | Site-directed mutagenesis of the LLID motif (SEQ ID NO: 20) ablated cleavage of the glucocorticoid receptor at this location (FIG. 3B) and revealed a secondary CASP1 cleavage site in the GR
